Data reported in US12533409B2, “Compositions and methods for targeting mutant RAS” (The Trustees of the University of Pennsylvania, priority 2019, dated 2026).

Legend:
HLA-A*11:01 [1] = molecular target: T1, HLA-A*11:01 (Homo sapiens, UniProt P04439, A114D/D185E/E176A/F33Y/L180Q/S129P/T187R); assay: HLA class I immunoprecipitation peptide elution and tandem Mass Spec (MS/MS), monoallelic K562 RAS TMG cell lines; assay type: cell-based; parameters: expressed in transfected cells; host or cells: K562, lentiviral HLA construct plus RAS tandem minigene construct; conditions: A*11:01-restricted; antigen processing/presentation
Text: (§1) Additional antigen processing and presentation studies were done using mass spectrometry. First, monoallelic K562 cell lines were created to express specific HLA types (FIG. 7A). Further, lentiviral constructs expressing various wt RAS and mRAS peptides were generated (FIG. 7E). Monoallelic cell lines that express specific HLA types and the various RAS and mRAS peptides were then created. The expression of HLA class I and HLA-specific expression of RAS TMG cells lines were verified by FACS (FIG. 7C and FIG. 7D).
(§2) Further, novel epitopes are identified for HLA-B*07:02.

HLA-A*03:01 [2] = molecular target: T2, HLA-A*03:01 (Homo sapiens, UniProt P04439); assay: as above; assay type: cell-based; parameters: expressed in transfected cells; host or cells: K562, lentiviral HLA construct plus RAS tandem minigene construct; conditions: A*03:01-restricted; antigen processing/presentation
Text: as §1, §2

HLA-A*11:01 [3] = molecular target: T1, HLA-A*11:01; assay: Competitive peptide binding fluorescence polarization assay; conditions: peptide-MHC binding; strong binding affinity indicated by log[IC50]<3.7 (FIG. 6A)
Method: (§3) Experiments were also conducted to examine peptide-MHC binding.

HLA-A*03:01 [4] = molecular target: T2, HLA-A*03:01; assay: as above; conditions: peptide-MHC binding; strong binding affinity indicated by log[IC50]<3.7 (FIG. 6A)
Method: as §3

HLA-B*07:02 = HLA-B*07:02 (Homo sapiens, UniProt P01889); assay: HLA class I immunoprecipitation peptide elution and tandem Mass Spec (MS/MS), monoallelic K562 RAS TMG cell lines; assay type: cell-based; parameters: expressed in transfected cells; host or cells: K562, lentiviral HLA construct plus RAS tandem minigene construct; conditions: B*07:02-restricted; antigen processing/presentation
Text: as §1, §2

[5] = system: alternatively mutated RAS epitopes; assay: Jurkat Reporter assay of TCR specificity and cross-reactivity; assay type: cell-based; conditions: Jurkat Reporter cells; HLA-B*07:02-restricted TCR
Method: (§4) Further experiments were conducted to characterize TCR896 expression and function. TCR896 expression was validated by peptide-MHC multimer staining of lentiviral-transduced Jurkat Reporter cells, as shown in FIG. 28A. FIG. 28B depicts the results of experiments assessing TCR896 avidity by Jurkat Reporter cells. Experiments were conducted assessing TCR specificity and cross-reactivity to alternative mutant RAS epitopes by Jurkat Reporter assay. […] FIG. 28D depicts TCR activation of Jurkat Reporter cells following coculture with A*03:01 positive RAS G12V tumor cell lines.
(§5) Further experiments were done to characterize TCR847 expression and function. TCR847 expression was validated by peptide-MHC multimer staining of lentiviral-transduced Jurkat Reporter cells, as shown in FIG. 29A. FIG. 29B depicts the results of experiments assessing TCR specificity and cross-reactivity to alternative mutant RAS epitopes by Jurkat Reporter assay.
(§6) Further experiments were conducted to characterize TCR864 expression and function. TCR864 expression was validated by peptide-MHC multimer staining of lentiviral-transduced Jurkat Reporter cells, as shown in FIG. 30A. FIG. 30B depicts the results of experiments assessing TCR864 avidity by Jurkat Reporter cells. Experiments were conducted to examine TCR864 specificity and cross-reactivity to alternative mutant RAS epitopes by Jurkat Reporter assay. […] The expression of TCR864 on primary CD8+ T cells is depicted in FIG. 30D.

RAS G12R (GA_R) = RAS G12R (GA_R) (Homo sapiens, UniProt P01116+P01889, G12R); assay: as above; assay type: cell-based; conditions: Jurkat Reporter cells
Method: as §5, §6

wildtype RAS epitope = assay: as above; assay type: cell-based; conditions: Jurkat Reporter cells; HLA-B*07:02-restricted TCR
Method: The validation of TCR831 expression by peptide-MHC multimer staining of lentiviral-transduced Jurkat Reporter cells is shown in FIG. 25A. Experiments were conducted to examine TCR831 avidity by Jurkat Reporter cells (FIG. 25B). Experiments were also conducted to assess TCR831 specificity and cross-reactivity to alternative mutant RAS epitopes by Jurkat Reporter assay. […] depicts TCR activation of Jurkat Reporter cells following coculture with A*11:01 positive RAS G12V tumor cell lines. FIG. 25E depicts the expression of TCR831 on primary CD8+ T cells. […] Cell line coloring corresponds to that in FIG. 25D.
Experiments were also conducted to further characterize the expression and function of TCR833. The validation of TCR833 expression by peptide-MHC multimer staining of lentiviral-transduced Jurkat Reporter cells is shown in FIG. 26A. FIG. 26B depicts the results of experiments assessing TCR833 avidity by Jurkat Reporter cells. Experiments were also conducted to assess TCR833 specificity and cross-reactivity to alternative mutant RAS epitopes by Jurkat Reporter assay. […] FIG. 26D depicts TCR833 activation of Jurkat Reporter cells following coculture with A*11:01 positive RAS G12V tumor cell lines.
as §5, with “conducted” for “done”, “TCR897” for “TCR847”, “27A.” for “29A.”, “27B” for “29B”, “TCR897 avidity by Jurkat Reporter cells. Experiments were conducted to assess TCR897” for “TCR”
as §4, §5, §6

Molecule | detection of mRAS epitope by HLA class I immunoprecipitation peptide elution and MS/MS (HLA-A*11:01 [1]) | detection of mRAS epitope by HLA class I immunoprecipitation peptide elution and MS/MS (HLA-A*03:01 [2]) | binding affinity of mRAS neoepitope for HLA-A*11:01 (HLA-A*11:01 [3]) | also measured
VVGARGVGK (VV_R) [mRAS peptide, G12R, HLA-A*03:01 and HLA-A*11:01] | detection | detection | high binding affinity | –
VVVGAVGVGK [VVV_V] | detection | detection | high binding affinity | binding affinity of mRAS neoepitope for HLA-A*03:01 (HLA-A*03:01 [4]): high binding affinity
VVGACGVGK [VV_C] | – | – | high binding affinity | –
VVVGARGVGK (VVV_R) [mRAS peptide, G12R, HLA-A*03:01 and HLA-A*11:01] | – | – | high binding affinity | binding affinity of mRAS neoepitope for HLA-A*03:01 (HLA-A*03:01 [4]): high binding affinity
VVGADGVGK [VV_D] | detection | – | high binding affinity | –
GADGVGKSAL (GA_D) [mRAS peptide, G12D, HLA-B*07:02] | – | – | – | detection of mRAS epitope by HLA class I immunoprecipitation peptide elution and MS/MS (HLA-B*07:02): identified new epitopes
VVVGADGVGK [VVV_D] | detection | detection | high binding affinity | –
TCR847: TCR construct, TRAV17 and TRBV10-3; fusion protein SEQ ID NO: 80; HLA-B*07:02 (protein, TCR847 FUSION, TCR construct, TRAV17 and TRBV10-3; HLA-B*07:02) METLLGVSLVILWLQLARVNSQQGEEDPQALSIQEGENATMNCSYKTSINNLQWYRQNSGRGLVHLILIRSNEREKHSGRLRVTLDTSKKSSSLLITASRAADTASYFCATFPNFGNEKLTFGTGTRLTIIPNIQNPDPAVYQLRDSKSSDKSVCLFTDFDSQTNVSQSKDSDVYITDKTVLDMRSMDFKSNSAVAWSNKSDFACANAFNNSIIPEDTFFPSPESSCDVKLVEKSFETDTNLNFQNLSVIGFRILLLKVAGFNLLMTLRLWSSGSGEGRGSLLTCGDVEENPGPMGTRLFFYVALCLLWTGHMDAGITQSPRHKVTETGTPVTLRCHQTENHRYMYWYRQDPGHGLRLIHYSYGVKDTDKGEVSDGYSVSRSKTEDFLLTLESATSSQTSVYFCAISESERYYEQYFGPGTRLTVTEDLKNVFPPEVAVFEPSEAEISHTQKATLVCLATGFYPDHVELSWWVNGKEVHSGVSTDPQPLKEQPALNDSRYCLSSRLRVSATFWQNPRNHFRCQVQFYGLSENDEWTQDRAKPVTQIVSAEAWGRADCGFTSESYQQGVLSATILYEILLGKATLYAVLVSALVLMAMVKRKDSRG | – | – | – | reactivity to alternatively mutated RAS epitopes [5]: not wildtype or alternatively mutated; specificity for RAS G12R (GA_R) (RAS G12R (GA_R)): exhibits specificity; reactivity to wildtype (wildtype RAS epitope): not wildtype
